How the values were obtained:
[1] = target: T1, Human CEACAM6-Dom2-MacMul-Xa-Fc-His (human, Domain 2 from Macaca mulatta); experiment: domain mapping ELISA, antigen coated
T1 construct: domain chimera fused to Xa-Fc-His; also called TPP-1792; DOM2 MM
Method: (§1) For ELISA analysis, the Fc-fused domain chimeras and the single domain 1 were coated on Nunc MaxiSorb plates and blocked with SmartBlock solution. After incubation with an IgG-concentration series (1 nM-1000 nM) for 1 h, plates were washed with PBS/T. Analysis of the bound IgGs to the CEACAM6 domain constructs was achieved over detection via Anti-Human IgG (Fab specific)-Peroxidase antibody (A0293, Sigma). Fluorescence detection was performed with AmplexRed (A12222, Invitrogen) following standard protocols.

[2] = target: T2, Human CEACAM6-Domain 1-His (expressed in E. coli), wild-type (human); experiment: domain mapping ELISA, antigen coated
T2 construct: entry includes the His tag; also called hDOM1
T2 chain: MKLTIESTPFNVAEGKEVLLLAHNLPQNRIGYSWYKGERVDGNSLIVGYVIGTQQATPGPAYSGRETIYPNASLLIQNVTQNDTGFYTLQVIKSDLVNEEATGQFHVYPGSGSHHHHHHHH
Method: as §1

[3] = target: T3, human CEACAM5, extracellular (mature form), R&D Systems 4128-CM (human, UniProt P06731 35-685); experiment: ELISA, antigen coated
T3 construct: used biotinylated in some assays; also called TPP-1438; hC5
T3 sequence: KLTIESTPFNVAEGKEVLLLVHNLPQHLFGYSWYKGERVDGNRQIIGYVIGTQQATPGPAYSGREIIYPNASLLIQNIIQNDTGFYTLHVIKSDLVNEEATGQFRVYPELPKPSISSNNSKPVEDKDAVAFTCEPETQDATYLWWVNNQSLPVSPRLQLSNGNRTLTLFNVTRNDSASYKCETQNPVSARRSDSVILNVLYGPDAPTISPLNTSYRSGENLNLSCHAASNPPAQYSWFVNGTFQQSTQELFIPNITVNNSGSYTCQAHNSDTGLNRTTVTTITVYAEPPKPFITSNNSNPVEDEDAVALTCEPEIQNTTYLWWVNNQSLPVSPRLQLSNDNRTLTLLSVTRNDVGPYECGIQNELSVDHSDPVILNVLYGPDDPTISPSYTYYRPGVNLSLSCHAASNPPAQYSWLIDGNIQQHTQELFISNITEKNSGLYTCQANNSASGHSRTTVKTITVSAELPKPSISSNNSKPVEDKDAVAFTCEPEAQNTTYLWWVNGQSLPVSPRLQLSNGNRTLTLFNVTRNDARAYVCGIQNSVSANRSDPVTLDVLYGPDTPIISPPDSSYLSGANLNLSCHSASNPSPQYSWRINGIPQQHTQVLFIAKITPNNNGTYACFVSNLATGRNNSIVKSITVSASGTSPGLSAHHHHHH
Method: (§2) ELISAs were used to characterize the binding of antibodies to various CEACAM paralogs and orthologs. Black 384-well plates were coated with […] of various CEACAM protein preparations at 2 μg/ml in coating buffer (Candor) for 1 h at 37° C. After one wash with PBS/0.05% Tween-20, wells were blocked with 100% Smart Block (Candor) for one hour at 37° C. After three washes with PBS/0.05% Tween-20, dilution series of the antibodies in PBS/0.05% Tween-20/10% Smart Block ranging from 2 μg/ml to 2 ng/ml were added and the plates were incubated for 1 h at room temperature. After three washes with PBS/0.05% Tween-20, an appropriate secondary antibody was added. For detection of proteins with a human Fc such as TPP-1173, an anti-human IgG HRP (Sigma A0170) was used at 1:10.000 dilution. For detection of proteins with a mouse Fc such as TPP-1744 an anti-mouse IgG HRP (ThermoScientific 31432) was used at 1:10.000 dilution. PBS/0.05% Tween-20/10% Smart Block was used as dilution buffer. The plates were incubated for 1 hour at room temperature. After three washes, the plates were developed with Amplex Red (Life Technologies) and fluorescence was read at an emission wavelength of 590 nm. GraphPad Prism 6.0 software was used to calculate EC₅₀ values using four-parameter non-linear curve fit. […]

[4] = target: T4, Macaca fascicularis CEACAM6, extracellular (mature form), obtained by Factor Xa cleavage of TPP-2443 (Macaca fascicularis); experiment: ELISA, antigen coated
T4 construct: used biotinylated in some assays; also called APP-319; Cynomolgus CEACAM6
T4 chain: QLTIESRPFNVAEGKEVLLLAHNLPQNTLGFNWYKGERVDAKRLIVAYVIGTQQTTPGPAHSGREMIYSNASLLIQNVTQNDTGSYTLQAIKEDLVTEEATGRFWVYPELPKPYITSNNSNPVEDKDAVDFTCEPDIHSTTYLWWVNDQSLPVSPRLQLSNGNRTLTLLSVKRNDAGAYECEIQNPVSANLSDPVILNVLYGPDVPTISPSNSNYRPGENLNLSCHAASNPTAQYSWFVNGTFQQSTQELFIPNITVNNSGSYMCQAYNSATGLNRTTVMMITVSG
Method: as §2

[5] = target: T5, Macaca mulatta CEACAM6-Xa-Fc-His (Macaca mulatta); experiment: SPR, antibody captured, antigen as analyte
T5 construct: extracellular (mature form) fused to Factor Xa site, human IgG1 Fc and His tag; the entry is the whole fusion; also called TPP-1306; MM WT
Method: Surface plasmon resonance (SPR) experiments for quantitative binding analyses were performed either using a Biacore T100, Biacore T200 or a Biacore 4000 instrument (GE Healthcare Biacore, Inc.) equipped with Series S Sensor Chips CM5 (GE Healthcare Biacore, Inc.). Binding assays were carried out at 25° C. with assay buffer HBS-EP+(10 mM HEPES pH 7.4, 150 mM NaCl, 3 mM EDTA, 0.05% Surfactant P20). Antibodies were captured with an anti-hIgG capture antibody covalently immobilized to the chip surface via amine coupling chemistry. Reagents for amine coupling (1-ethyl-3-(3-dimethylaminopropyl) carbodiimide hydrochloride (EDC), N-hydroxysuccinimide (NHS), ethanolamine-HCl pH 8.5) were used from the Amine Coupling Kit (GE Healthcare, product code BR-1000-50). Anti-hIgG, anti-mIgG capture antibodies and immobilization buffer (10 mM sodium acetate pH 5.0) were used from the Human Antibody Capture Kit (GE Healthcare, BR-1008-39) and the Mouse Antibody Capture Kit (GE Healthcare, BR-1008-38), respectively. The sensor chip surface was activated with a freshly prepared solution of 0.2 M EDC and 0.05 M NHS passed over the chip surface for 420 s at a flow rate of 10 μl/min, followed by an injection of anti-hIgG or anti-mIgG capture antibody (dissolved to 25 μg/ml in immobilization buffer) for 180 s at a flow rate of […]. Excess of activated groups were blocked with a 1 molar solution of ethanolamine injected at a flow rate of 10 μl/min for 420 s.
CEACAM antigens were used as analyte to determine KD values. Antibodies were captured for 20 s at a flow rate of 10 μl/min prior to each analyte injection.
Obtained sensorgrams were double-referenced, i.e. in-line reference cell correction followed by buffer sample subtraction.

- binding result [1]: binds
- binding result [2]: no binding (tested: 1000 nM IgG)
- EC50 [3]: 0.09 nM
- EC50 [4]: 1.35 nM
- Kd [5]: 23 nM
B1: Neo201 (human IgG1) (antibody, V domains shown)
VH: QVQLVQSGAEVKKPGASVKVSCKASGYTFTDYAMHWVRQAPGQRLEWMGLISTYSGDTKYNQNFQGRVTMTVDKSASTAYMELSSLRSEDTAVYYCARGDYSGSRYWFAYWGQGTLVTVSS
VL: DIQMTQSPSSLSASVGDRVTITCQASENIYGALNWYQRKPGKSPKLLIYGASNLATGMPSRFSGSGSGTDYTFTISSLQPEDIATYYCQQVLSSPYTFGGGTKLEIKR
notes: based on US20130189268; also called TPP-1173; Neo201-hIgG1

From US20200181261A1 (Bayer, published 2020)
